From patent US12072338B2, “Pharmaceutical peptides for the treatment of inflammatory diseases” (PROTAGONISTS LTD., priority 2007, dated 2024)

Experiments:
IP-10 = biological target: T1, IP-10 (Homo sapiens, UniProt P02778); assay: Micro-array analysis of chemokine binding peptides: IP-10
T1 construct: purchased 300-12
T1 sequence (P02778 22-98): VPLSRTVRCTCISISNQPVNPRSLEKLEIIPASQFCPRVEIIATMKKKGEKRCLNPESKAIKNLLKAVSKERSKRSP
Protocol: (§1) (1) Printing: Chemokine (CK) solution (in water) was serially diluted with Print Reagent (GenTel BioSurfaces USA) to final concentrations of 50 μg and 25 μg/ml. BSA/BSA-Biotin control solutions (in water) were diluted with Print Reagent to 100 μg/ml. Amplified stock of M13 phage control (M13KEgIII Cloning Vector, New England Biolabs, Cat.No.E8101S) was stored in Tris Buffered Saline (TBS; pH7.5, 4° C.) and diluted with Print Reagent to the working titre (10^8 pfu/μl). An automated spotting robot (16 pin print tool, 0.4 mm head; BioRobotics, UK) was used to print the CK/BSA control/M13 control, 5 repeats per sample (CK 25 μg/ml and 50 μg/ml; BSA 100 μg/ml; M13 20 μl), on PATH Protein Microarray Slides (GenTel, Prod.No. 2-1005/-1025) at […], and 50-70% relative humidity. Printed micro-array slides were stored at Room Temperature (RT) or 4° C. for at least 24 h before use.
(§2) (2) Blocking: Block Buffer (500 μl/partition; PATHblock, GenTel, Prod.No. 2-1014) was applied to the slide for 1 hour at room temp (RT). After removal of Block Buffer, the slide was air dried for 25 minutes;
(§3) (3) Phage Presented Peptide Binding: Amplified recombinant phage stock was stored in TBS and diluted with Wash Buffer to working titer (10^7 pfu/μl). Recombinant phage suspension (300 μl) was applied per partition and incubated at RT for 1 hour with gentle agitation.
(§4) (4) First Washing: The slides were washed twice with Wash Buffer 300 μl/partition).
(§5) (5) Primary Antibody (Ab) Labeling: The slides were incubated with the Primary Ab (1 mg/ml diluted ×2500 (Wash Reagent), 300 μl; Mouse Anti-M13 monoclonal Ab; Amersham Biosciences, UK; Product Code 27-9420-01) for 45 minutes at RT.
(§6) (6) Second Washing: The slides were washed twice with Wash Buffer (300 μl/partition).
(§7) (7) Secondary Ab Labeling: The slides were incubated with Secondary Ab (1.5 mg/ml diluted ×5000 (Wash Reagent), 300 μl; Cy3-conjugated AffiniPure Goat Anti-Mouse IgG; Jackson ImmunoReserch Labs, USA; Product Code 115-165-062).
(§8) (8) Third Washing: The slides were washed twice with Wash Buffer (300 μl/partition).
(§9) (9) Rinse: the slides were rinsed twice with Rinse Buffer (PATHrinse, GenTel, Prod.No. 2-1018) then dried well.
(§10) (10) Scanning: The peptide-bound, labeled slide was scanned (Laser Intensity 80%, Gain 80%, Resolution 10 μm) with a ScanArray Life Scanner (Packard BioChip Technologies, USA).
(§11) (11) Analysis: Quantitative analysis of micro-array was performed by the SpotReader program of Niles Scientific (USA) and presented as Relative Fluorescence (RF) as a function of CK concentration. Micro-array readout (Cy3 fluorescence) was quantified to determine the relative binding affinities of a CBP for the CKs and by inference, the specificity of the CBP for binding to a CK.

MCP-2 = biological target: T2, MCP-2 (Homo sapiens, UniProt P80075); assay: Micro-array analysis of chemokine binding peptides: MCP-2; details: limit = start of the upper 75% of that peptide's response range
T2 construct: purchased 300-15
T2 sequence (P80075 24-99): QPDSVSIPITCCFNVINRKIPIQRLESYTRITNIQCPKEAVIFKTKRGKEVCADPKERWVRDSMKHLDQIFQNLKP
Protocol: as §1, §2, §3, §4, §5, §6, §7, §8, §9, §10, §11

MCP-4 = biological target: T3, MCP-4 (Homo sapiens, UniProt Q99616); assay: Micro-array analysis of chemokine binding peptides: MCP-4; details: limit = start of the upper 75% of that peptide's response range
T3 construct: purchased 300-24
Protocol: as §1, §2, §3, §4, §5, §6, §7, §8, §9, §10, §11

Eotaxin = biological target: T4, Eotaxin (Homo sapiens, UniProt P51671); assay: Micro-array analysis of chemokine binding peptides: Eotaxin
T4 construct: purchased 300-21
Protocol: as §1, §2, §3, §4, §5, §6, §7, §8, §9, §10, §11

BCA-1 = biological target: T5, BCA-1 (Homo sapiens, UniProt O43927); assay: Micro-array analysis of chemokine binding peptides: BCA-1
T5 construct: purchased 300-47
T5 sequence (O43927 23-109): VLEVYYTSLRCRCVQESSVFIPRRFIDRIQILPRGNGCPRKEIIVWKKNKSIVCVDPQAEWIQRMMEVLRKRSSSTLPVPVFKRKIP
Protocol: as §1, §2, §3, §4, §5, §6, §7, §8, §9, §10, §11

I-TAC = biological target: T6, I-TAC (Homo sapiens, UniProt O14625); assay: Micro-array analysis of chemokine binding peptides: I-TAC
T6 construct: purchased 300-46
T6 sequence (O14625 22-94): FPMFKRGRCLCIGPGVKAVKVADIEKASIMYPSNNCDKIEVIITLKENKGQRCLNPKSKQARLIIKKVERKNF
Protocol: as §1, §2, §3, §4, §5, §6, §7, §8, §9, §10, §11

Mig = biological target: T7, Mig (Homo sapiens, UniProt Q07325); assay: Micro-array analysis of chemokine binding peptides: Mig
T7 construct: purchased 300-26
T7 sequence (Q07325 23-125): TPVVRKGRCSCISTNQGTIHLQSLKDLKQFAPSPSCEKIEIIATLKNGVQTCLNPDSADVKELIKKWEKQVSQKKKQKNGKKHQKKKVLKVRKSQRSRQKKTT
Protocol: as §1, §2, §3, §4, §5, §6, §7, §8, §9, §10, §11

SDF1-β = biological target: T8, SDF1-β (Homo sapiens, UniProt P48061); assay: Micro-array analysis of chemokine binding peptides: SDF1-β
T8 construct: purchased 300-28b
Protocol: as §1, §2, §3, §4, §5, §6, §7, §8, §9, §10, §11

I-309 = biological target: T9, I-309 (Homo sapiens, UniProt P22362); assay: Micro-array analysis of chemokine binding peptides: I-309
T9 construct: purchased 300-37
T9 sequence (P22362 24-96): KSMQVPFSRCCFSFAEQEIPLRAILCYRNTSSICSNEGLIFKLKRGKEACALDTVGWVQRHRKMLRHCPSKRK
Protocol: as §1, §2, §3, §4, §5, §6, §7, §8, §9, §10, §11

TECK = biological target: T10, TECK (Homo sapiens, UniProt O15444); assay: Micro-array analysis of chemokine binding peptides: TECK
T10 construct: purchased 300-45
T10 sequence (O15444 24-150): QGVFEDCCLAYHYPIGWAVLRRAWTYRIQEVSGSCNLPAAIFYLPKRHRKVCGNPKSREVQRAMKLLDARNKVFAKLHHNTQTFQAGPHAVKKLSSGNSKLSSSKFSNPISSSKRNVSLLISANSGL
Protocol: as §1, §2, §3, §4, §5, §6, §7, §8, §9, §10, §11

Eotaxin 3 = biological target: T11, Eotaxin 3 (Homo sapiens, UniProt Q9Y258); assay: Micro-array analysis of chemokine binding peptides: Eotaxin 3
T11 construct: purchased 300-48
T11 sequence (Q9Y258 24-94): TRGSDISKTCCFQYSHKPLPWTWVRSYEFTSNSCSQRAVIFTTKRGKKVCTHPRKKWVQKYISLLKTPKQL
Protocol: as §1, §2, §3, §4, §5, §6, §7, §8, §9, §10, §11

Lymphotactin = biological target: T12, Lymphotactin (Homo sapiens, UniProt P47992); assay: Micro-array analysis of chemokine binding peptides: Lymphotactin
T12 construct: purchased 300-20
T12 sequence (P47992 22-114): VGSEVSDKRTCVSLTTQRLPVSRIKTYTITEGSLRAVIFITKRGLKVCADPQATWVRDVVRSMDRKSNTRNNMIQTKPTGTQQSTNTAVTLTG
Protocol: as §1, §2, §3, §4, §5, §6, §7, §8, §9, §10, §11

[1] = tested on: Adjuvant-Induced Arthritis (AIA) rats; assay: Adjuvant Induced Arthritis (AIA) rat model, Clinical Score; assay type: in vivo; details: 25 μg IP on days 7-18
Protocol: Peptides were tested in a rat model of AIA for their anti-inflammatory effects.
Disease Induction: AIA was induced in female Lewis rats aged 7-8 weeks by injection of heat-killed Mycobacerioum tuberculosis (Mt strain H37Ra, Difco Laboratories, USA) dispersed in incomplete Freund's adjuvant to a final concentration of 10 mg/ml (100 μl) at the base of the tail on day 0.
Measurement: Clinical Score (CS, 0-4) for each limb based on (a) joint inflammation, (b) redness, (c) deformity.
Efficacy Protocol 1 (5 rats per group). Peptide/control compound was injected intra-peritoneally (IP, 200 μl) on days 7-11 and 14-18.
Rats were sacrificed (CO2 inhalation) on day 43.
Efficacy Protocol 2 (8 rats per group). Group 1: peptide/PBS was injected intra-peritoneally (IP, 200 μl) on days 7-18; Group 2: PBS was injected IP on days 7-18; Group 3: Dexamethasone (Dexa) was injected IP on days 11 (Clinical Score (CS)1) and 13. Rats were sacrificed on day 43.
Combination Efficacy Protocol 1 (8 rats per group). Group 1: peptide injected IP on days 7-18; Group 2: PBS injected IP on days 7-18; Group 3: Dexa injected IP on day 11 (CS 1) and day 13; Group 4: Dexa injected IP on days 11 and 13 then peptide injected on days 14-22; Group 5: Dexa injected IP on days 11 and 13 then PBS injected on days 14-22.
Combination Efficacy Protocol 2 (8 rats per group). Group 1: peptide injected IP on days 7-18; Group 2: PBS injected IP on days 7-18; Group 3: Dexa injected IP on day 11 (CS 1) and day 13 then PBS on days 14-22; Group 4: PBS injected IP on days 7-10,12,14; Dexa injected on days 11, 13. Peptide injected on days 15-19.
Combination Efficacy Protocol 3 (8 rats per group). Group 1: peptide injected IP on days 7-18; Group 2: PBS injected IP on days 7-18; Group 3: Dexa injected IP on day 11 (CS 1) and day 13 then PBS on days 14-22; Group 4: peptide injected IP on days 7-10,12,14; Dexa injected on days 11, 13. Peptide injected on days 15-19.
Control Reagents for Adjuvant Induced Arthritis: Anti-Inflammatory Control: Dexamethasone Sodium Phosphate (Dexacort Forte, Teva) was dissolved in Phosphate Buffer Saline (PBS, GIBCO) to a final concentration of 1 mg/ml and injected in 200 μl (200 μg).
Negative Control: Phosphate Buffer Saline (PBS).

Fractalkine = biological target: T13, Fractalkine (Homo sapiens, UniProt P78423); assay: Micro-array analysis of chemokine binding peptides: Fractalkine
T13 construct: purchased 300-31
T13 sequence (P78423 25-100 limits assumed): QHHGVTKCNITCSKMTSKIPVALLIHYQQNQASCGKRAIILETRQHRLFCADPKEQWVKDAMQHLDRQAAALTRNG
Protocol: as §1, §2, §3, §4, §5, §6, §7, §8, §9, §10, §11

IL-8 = assay: Micro-array analysis of chemokine binding peptides: IL-8; details: limit = start of the upper 75% of that peptide's response range
Protocol: as §1, §2, §3, §4, §5, §6, §7, §8, §9, §10, §11

[2] = limit = start of the upper 75% of that peptide's response range

T3 sequence (Q99616 17-98): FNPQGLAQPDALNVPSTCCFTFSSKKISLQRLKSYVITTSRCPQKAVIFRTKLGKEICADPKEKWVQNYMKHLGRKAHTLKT
T8 sequence (P48061 22-93): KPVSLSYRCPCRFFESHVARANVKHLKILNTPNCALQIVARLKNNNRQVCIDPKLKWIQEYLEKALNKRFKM
Sequence of IL-8 (P10145 28-99 limits assumed): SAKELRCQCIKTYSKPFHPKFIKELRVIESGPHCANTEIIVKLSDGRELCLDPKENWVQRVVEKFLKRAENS
T4 sequence (P51671 24-97): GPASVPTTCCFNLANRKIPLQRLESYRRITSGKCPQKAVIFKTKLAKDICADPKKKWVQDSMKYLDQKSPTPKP

Sequence | binding to IP-10, stated in words (IP-10) | binding to MCP-2 with relatively high affinity (Relative Fluorescence Units) (MCP-2) | binding to MCP-4 with relatively high affinity (Relative Fluorescence Units) (MCP-4) | binding to Eotaxin, stated in words (Eotaxin) | binding to BCA-1, stated in words (BCA-1) | binding to I-TAC, stated in words (I-TAC) | binding to Mig, stated in words (Mig) | binding to SDF1-β, stated in words (SDF1-β) | binding to I-309, stated in words (I-309) | binding to TECK, stated in words (TECK) | binding to Eotaxin 3, stated in words (Eotaxin 3) | binding to Lymphotactin, stated in words (Lymphotactin) | maximal anti-inflammatory effect [1] [%] | binding to Fractalkine, stated in words (Fractalkine) | binding to IL-8 with relatively high affinity (Relative Fluorescence Units) (IL-8) | binding to I-TAC with relatively high affinity (Relative Fluorescence Units) (I-TAC; [2]) | binding to Mig with relatively high affinity (Relative Fluorescence Units) (Mig; [2]) | binding to I-309 with relatively high affinity (Relative Fluorescence Units) (I-309; [2]) | binding to Eotaxin 3 with relatively high affinity (Relative Fluorescence Units) (Eotaxin 3; [2])
WVFGNAACK [Ph-p8.7] | bound | > 15,000 RFU | > 15,000 RFU | bound | bound | bound | bound | bound | bound | bound | bound | bound |  |  |  |  |  |  | 
WVFGNMICK [P8 Rat] |  |  |  |  |  |  |  |  |  |  |  |  | 40 |  |  |  |  |  | 
WVFGVHFCK [Ph-p8.77] |  | > 15,000 RFU | > 15,000 RFU |  | bound |  |  | bound |  | bound |  |  | 23 | bound | > 15,000 RFU | > 15,000 RFU | > 15,000 RFU | > 15,000 RFU | > 15,000 RFU
